Data as given in patent US20200317768A1 (published 2020).
Positions count from the first letter of the chain named.

T1: cynomolgus monkey FcγRIIIaS extracellular domain with C-terminal His-tag (cynomolgus monkey, UniProt Q8SPW2 21-206 at identity 1.00))
T1 construct: also called cyno FcgRIIIaS; cynoFcγRIIIaS
T1 chain: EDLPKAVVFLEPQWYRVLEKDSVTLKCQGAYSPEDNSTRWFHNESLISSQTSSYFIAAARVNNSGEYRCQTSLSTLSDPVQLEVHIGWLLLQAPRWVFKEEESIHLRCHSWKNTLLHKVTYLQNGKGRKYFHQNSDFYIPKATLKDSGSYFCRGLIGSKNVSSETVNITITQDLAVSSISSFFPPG

T2: cynomolgus monkey FcγRIIa2 extracellular domain with C-terminal His-tag (cynomolgus monkey)
T2 construct: also called cyno FcgRIIa2; cynoFcγRIIa2
T2 chain: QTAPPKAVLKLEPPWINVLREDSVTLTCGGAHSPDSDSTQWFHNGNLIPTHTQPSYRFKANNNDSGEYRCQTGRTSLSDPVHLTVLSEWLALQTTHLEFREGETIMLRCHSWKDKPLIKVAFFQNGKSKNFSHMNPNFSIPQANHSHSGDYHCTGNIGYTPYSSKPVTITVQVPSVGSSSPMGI

T3: human FcγRIIaR extracellular domain with C-terminal His-tag (human, UniProt P12318 34-217)
T3 construct: also called human FcgRIIaR; FcγRIIa (type R)
T3 chain: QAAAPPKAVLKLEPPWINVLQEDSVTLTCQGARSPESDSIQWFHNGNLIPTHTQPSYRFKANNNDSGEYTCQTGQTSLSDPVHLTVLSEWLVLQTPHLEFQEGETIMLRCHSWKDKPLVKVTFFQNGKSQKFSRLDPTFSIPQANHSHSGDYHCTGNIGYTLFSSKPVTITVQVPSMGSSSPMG

T4: human FcγRIIb extracellular domain with C-terminal His-tag (human, UniProt P31994 43-217)
T4 construct: also called human FcgRIIb
T4 sequence: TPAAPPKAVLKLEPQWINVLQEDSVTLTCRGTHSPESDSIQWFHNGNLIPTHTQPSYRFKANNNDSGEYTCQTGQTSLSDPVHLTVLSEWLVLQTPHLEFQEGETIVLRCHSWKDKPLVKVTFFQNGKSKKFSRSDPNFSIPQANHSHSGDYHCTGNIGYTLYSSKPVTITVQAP

T5: cynomolgus monkey FcγRIIa3 extracellular domain with C-terminal His-tag (cynomolgus monkey)
T5 construct: also called cyno FcgRIIa3; cynoFcγRIIa3
T5 chain: T2 chain with K127I, N130K, H133P, Q142R

T6: human FcγRIIaH extracellular domain with C-terminal His-tag (human, UniProt P12318 34-217)
T6 construct: also called human FcgRIIaH; FcγRIIa (type H)
T6 sequence: T3 chain with R134H

T7: cynomolgus monkey FcγRIIa1 extracellular domain with C-terminal His-tag (cynomolgus monkey)
T7 construct: also called cyno FcgRIIa1; cynoFcγRIIa1
T7 chain: T2 chain with T95P, A121T, K127I, S128A, N130K, N135D, Q142R

B1: M103205H795-MY520/M103202L889-SK1 (antibody, human IgG1, kappa)
heavy: QVTLKESGPVLVKPTETLTLTCTVSGIDLSHDDISWVRQAPGKGLEWVGIISYAGSTYYASWAKGRLTISKDTSKNQVVLTMTNMDPVDTATYYCARGVPAYSHGGDLWGQGTLVTVSSASTKGPSVFPLAPSSKSTSGGTAALGCLVKDYFPEPVTVSWNSGALTSGVHTFPAVLQSSGLYSLSSVVTVPSSSLGTQTYICNVNHKPSNTKVDKKVEPKSCDKTHTCPPCPADELLTGPVVFLFPPKPKDTLMISRTPEVTCVVVDVSDEDPEVKFNWYVDGVEVHNAKTKPREELYNSTYRVVSVLTVLHQDWLNGKEYKCKVSNKALPKPIEKTISKAKGQPREPQVYTLPPSREEMTKNQVSLTCLVKGFYPSDIAVEWESNGQPENNYKTTPPVLDSDGSFFLYSKLTVDKSRWQQGNVFSCSVMHEALHNHYTQKSLSLSP
light: DIVMTQSPATLSLSPGERATLSCTSSQSVYHANWLSWFQQKPGQPPKLLIYWASTLAYGVPSRFSGSGSGTDFTLTISSLQPEDAATYYCAGGYGGGRYAFGQGTKVEIKRTVAAPSVFIFPPSDEQLKSGTASVVCLLNNFYPREAKVQWKVDNALQSGNSQESVTEQDSKDSTYSLSSTLTLSKADYEKHKVYACEVTHQGLSSPVTKSFNRGEC
notes: Substitutions introduced into M103205H795-SG1, expressed with M103202L889-SK1 as light chain; EU numbering
B2: M103205H795-MY525/M103202L889-SK1 (antibody, human IgG1, kappa)
heavy: B1 heavy with A233T, D234P, L297Q
light: B1 light
notes: as for B1
B3: M103205H795-MY528/M103202L889-SK1 (antibody, human IgG1, kappa)
heavy: B1 heavy with D234P, L236W, V241S, L297Q
light: B1 light
notes: as for B1
B4: M103205H795-MY532/M103202L889-SK1 (antibody, human IgG1, kappa)
heavy: B1 heavy with D234P, L236W, L297Q
light: B1 light
notes: as for B1
B5: M103205H795-MY522/M103202L889-SK1 (antibody, human IgG1, kappa)
heavy: B1 heavy with A233G, D234P, L297Q
light: B1 light
notes: as for B1
B6: M103205H795-MY530/M103202L889-SK1 (antibody, human IgG1, kappa)
heavy: B1 heavy with D234P, V241S, L297Q, K328T
light: B1 light
notes: as for B1
B7: M103205H795-MY526/M103202L889-SK1 (antibody, human IgG1, kappa)
heavy: B1 heavy with A233T, D234P
light: B1 light
notes: as for B1
B8: M103205H795-MY521/M103202L889-SK1 (antibody, human IgG1, kappa)
heavy: B1 heavy with V241S
light: B1 light
notes: as for B1
B9: M103205H795-MY523/M103202L889-SK1 (antibody, human IgG1, kappa)
heavy: B1 heavy with A233G, D234P
light: B1 light
notes: as for B1
B10: M103205H795-MY529/M103202L889-SK1 (antibody, human IgG1, kappa)
heavy: B1 heavy with D234P, L236W, V241S
light: B1 light
notes: as for B1
B11: M103205H795-MY527/M103202L889-SK1 (antibody, human IgG1, kappa)
heavy: B1 heavy with A233T, D234P, V241S
light: B1 light
notes: as for B1
B12: M103205H795-MY524/M103202L889-SK1 (antibody, human IgG1, kappa)
heavy: B1 heavy with A233G, D234P, V241S
light: B1 light
notes: as for B1
B13: M103205H795-MY531/M103202L889-SK1 (antibody, human IgG1, kappa)
heavy: B1 heavy with D234P, L236W, V241S, L297Q, K328T
light: B1 light
notes: as for B1

Target: T1, cynomolgus monkey FcγRIIIaS …
Experiment: SPR (BIACORE), antibody captured, FcgR analyte

Row | Binder | Kd [nM]
1 | B1 | 2000
2 | B2 | 1400
3 | B3 | 2000
4 | B4 | 860
5 | B5 | 1900
6 | B6 | 850
7 | B7 | 16000
8 | B8 | 2200
9 | B9 | 2100
10 | B10 | 2200
11 | B11 | 1500
12 | B12 | 2000
13 | B13 | 1000

target: T8, human FcγRIIIaV extracellular domain with C-terminal His-tag (human, UniProt P08637 17-208); experiment: SPR (BIACORE), antibody captured, FcgR analyte
T8 construct: also called human FcgRIIIaV
T8 sequence (P08637 17-208 F176V): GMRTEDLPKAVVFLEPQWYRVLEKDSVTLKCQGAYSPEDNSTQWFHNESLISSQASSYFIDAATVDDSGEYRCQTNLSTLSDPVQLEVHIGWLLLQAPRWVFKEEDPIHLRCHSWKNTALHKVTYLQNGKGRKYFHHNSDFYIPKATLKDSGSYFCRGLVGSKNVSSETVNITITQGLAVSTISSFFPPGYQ

Row | Binder | Kd [nM]
14 | B1 | 3500
15 | B2 | 4300
16 | B3 | 4200
17 | B4 | 1700
18 | B5 | 5700
19 | B6 | 3600
20 | B7 | 4300
21 | B8 | 5200
22 | B9 | 5500
23 | B10 | 4000
24 | B11 | 4300
25 | B12 | 4500
26 | B13 | 2900

Target: T2, cynomolgus monkey FcγRIIa2 …
Experiment: SPR (BIACORE), antibody captured, FcgR analyte

Row | Binder | Kd [nM]
27 | B1 | 2300
28 | B2 | 1100
29 | B3 | 1500
30 | B4 | 600
31 | B5 | 1200
32 | B6 | 1100
33 | B7 | 1200
34 | B8 | 33000
35 | B9 | 1300
36 | B10 | 1400
37 | B11 | 1300
38 | B12 | 11000
39 | B13 | 920

Target: T3, human FcγRIIaR extracellular domain …
Experiment: SPR (BIACORE), antibody captured, FcgR analyte

Row | Binder | Kd [nM]
40 | B1 | 340
41 | B2 | 160
42 | B3 | 360
43 | B4 | 190
44 | B5 | 170
45 | B6 | 270
46 | B7 | 210
47 | B8 | 300
48 | B9 | 210
49 | B10 | 530
50 | B11 | 290
51 | B12 | 280
52 | B13 | 410

target: T4, human FcγRIIb extracellular domain with …; experiment: SPR (BIACORE), antibody captured, FcgR analyte

Row | Binder | Kd [nM]
53 | B1 | 1400
54 | B2 | 1200
55 | B3 | 2200
56 | B4 | 830
57 | B5 | 1100
58 | B6 | 1600
59 | B7 | 1200
60 | B8 | 1500
61 | B9 | 1100
62 | B10 | 1400
63 | B11 | 1400
64 | B12 | 1000
65 | B13 | 1500

Target: T5, cynomolgus monkey FcγRIIa3 …
Experiment: SPR (BIACORE), antibody captured, FcgR analyte

Row | Binder | Kd [nM]
66 | B1 | 2100
67 | B2 | 1100
68 | B3 | 3200
69 | B4 | 740
70 | B5 | 930
71 | B6 | 2500
72 | B7 | 1300
73 | B8 | 4400
74 | B9 | 1100
75 | B10 | 3200
76 | B11 | 3400
77 | B12 | 2700
78 | B13 | 2200

target: T6, human FcγRIIaH extracellular domain …; experiment: SPR (BIACORE), antibody captured, FcgR analyte

Row | Binder | Kd [nM]
79 | B1 | 490
80 | B2 | 210
81 | B3 | 390
82 | B4 | 210
83 | B5 | 240
84 | B6 | 170
85 | B7 | 170
86 | B8 | 390
87 | B9 | 190
88 | B10 | 230
89 | B11 | 110
90 | B12 | 110
91 | B13 | 290

Target: T7, cynomolgus monkey FcγRIIa1 …
Experiment: SPR (BIACORE), antibody captured, FcgR analyte

Row | Binder | Kd [nM]
92 | B1 | 2500
93 | B2 | 1600
94 | B3 | 1400
95 | B4 | 770
96 | B5 | 1700
97 | B6 | 13
98 | B7 | 13000
99 | B8 | 2500
100 | B9 | 1400
101 | B10 | 1000
102 | B11 | 1100
103 | B12 | 1000
104 | B13 | 1100
